Data: paper PMC7188994

Target: SspA C314S mutant from Vibrio cyclitrophicus FF75 (Vibrio cyclitrophicus FF75)
Assay: crystal structure; SspA C314S with cysteine substrate and PLP; hanging drop at 14°C, 1.8 M ammonium citrate pH 7.0; space group P6_(3)22, two molecules in each asymmetric unit; 1.80 Å

stoichiometry N: 2
Substance: SspA C314S mutant from Vibrio cyclitrophicus FF75 (from UniProt A0AAN0N811 1-211) (enzyme)
